The values below come from paper PMC4349727, “Redox-dependent chaperone/peroxidase function of 2-Cys-Prx from the cyanobacterium Anabaena PCC7120: role in oxidative stress tolerance” (BMC Plant Biology, 2015).

One experiment deals with T1, Alr4641 (2-Cys-Prx) (Nostoc sp. PCC 7120 = FACHB-418, UniProt A0ACD7RYC4).
T1 construct: full length, 203 residues, 23 kD, N-terminal His-tag (pET16b), expressed in E. coli BL21pLysS; decamer/dodecamer
T1 sequence (A0ACD7RYC4 1-203): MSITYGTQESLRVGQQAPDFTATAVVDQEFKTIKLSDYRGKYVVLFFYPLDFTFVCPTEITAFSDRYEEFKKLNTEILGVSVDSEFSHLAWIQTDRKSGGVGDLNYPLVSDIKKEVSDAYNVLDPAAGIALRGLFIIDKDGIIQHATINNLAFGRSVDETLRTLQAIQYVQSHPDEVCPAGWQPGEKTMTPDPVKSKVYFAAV
In words: NTRC-dependent peroxidase assay, NADPH oxidation at […] nm. It counts as biochemical. The following applies: 100 uM peroxide; NTRC of Anabaena PCC7120 as reductant with NADPH.

The target in experiment [1] is Alr4641 (typical 2-Cys-Prx of Anabaena PCC7120), His-tagged, wild type (Anabaena PCC7120). The experiment in a line: SDS-PAGE under reducing or non-reducing conditions; 12% SDS-PAGE of purified proteins with or without DTT (10 mM); shows the inter-subunit disulfide dimer.
The target in experiment [2] is Alr4641 over-expressed in Anabaena PCC7120 (strain An4641+) (Anabaena PCC7120). The experiment in a line: non-reducing SDS-PAGE with Western blot; cell free extracts of Anabaena (wild type after MV, H2O2, t-Bx or γ-radiation and recovery; An4641+; AnC56S+) on non-reducing SDS-PAGE, probed with Alr4641 antiserum; shows the disulfide dimer. On the technique in general: Immunoblotting shows a protein as a band on a membrane.

Experiment [3] concerns the target Alr4641, endogenous in wild-type Anabaena PCC7120 (Anabaena PCC7120 (endogenous)). The description is as above.
The target in experiment [4] is Alr4641 (typical 2-Cys-Prx of Anabaena PCC7120), His-tagged, wild type (Anabaena PCC7120). The experiment in a line: SPR; Autolab Esprit; about 250 response units of Alr4641 immobilised on bare gold chip by EDC-NHS; NTRC injected at 4.33, 8.66, 10.39 and 12.99 μM, 33.3 μL/min, 300 s; 20°C; 10 mM HEPES, 100 mM NaCl, pH 7.5; equilibrium analysis. (In SPR one partner is held on a chip, and binding of the other changes the refractive index at the surface.)

`CC(C)(OO)c1ccccc1` [Cux, cumeme hydroperoxide]: the “NTRC-dependent peroxidase assay, NADPH oxidation at 340 nm” value at Alr4641 (2-Cys-Prx) was “best activity was observed with H2O2 followed by t-butyl hydroperoxide and cumeme hydroperoxide”.

For the compound `CC(C)(C)OO` [t-Bx, t-butyl hydroperoxide], the “NTRC-dependent peroxidase assay, NADPH oxidation at 340 nm” value on Alr4641 (2-Cys-Prx) is “best activity was observed with H2O2 followed by t-butyl hydroperoxide and cumeme hydroperoxide”.

Turning to “Alr4641 (typical 2-Cys-Prx of Anabaena PCC7120), His-tagged, wild type (enzyme)”, in experiment [1], the stoichiometry N is 2.

“Alr4641 over-expressed in Anabaena PCC7120 (strain An4641+) (enzyme)” showed a stoichiometry N in experiment [2] of 2.

Compound “Alr4641, endogenous in wild-type Anabaena PCC7120 (enzyme)” had a stoichiometry N in experiment [3] of 2.

In experiment [4], “NADPH-dependent thioredoxin reductase (NTRC) from Anabaena PCC7120, His-tagged (enzyme)” gave a Kd of 1040 nM.

The stoichiometry N is the number of molecules, sites or subunits per partner or assembly. For orientation: Kd means the equilibrium constant for the complex coming apart.
